T1: human IL-11Rα on transfected cells (human, UniProt Q14626 23-422)
T1 sequence: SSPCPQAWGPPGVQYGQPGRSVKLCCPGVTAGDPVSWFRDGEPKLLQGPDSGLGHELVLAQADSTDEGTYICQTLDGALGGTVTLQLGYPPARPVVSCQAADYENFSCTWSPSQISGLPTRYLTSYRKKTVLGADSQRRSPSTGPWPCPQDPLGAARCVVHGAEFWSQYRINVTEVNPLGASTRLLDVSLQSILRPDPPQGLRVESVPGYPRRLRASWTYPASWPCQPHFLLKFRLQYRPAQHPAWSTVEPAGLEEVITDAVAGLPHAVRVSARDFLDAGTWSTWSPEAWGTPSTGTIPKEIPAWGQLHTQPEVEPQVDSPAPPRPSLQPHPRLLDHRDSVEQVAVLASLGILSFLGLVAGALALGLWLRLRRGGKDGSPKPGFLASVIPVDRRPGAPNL

T2: human IL-11Rα (form used in the assay not stated) (human, UniProt Q14626 23-363, limits assumed)
T2 construct: also called hIL-11R; hIL-11Rα
T2 sequence: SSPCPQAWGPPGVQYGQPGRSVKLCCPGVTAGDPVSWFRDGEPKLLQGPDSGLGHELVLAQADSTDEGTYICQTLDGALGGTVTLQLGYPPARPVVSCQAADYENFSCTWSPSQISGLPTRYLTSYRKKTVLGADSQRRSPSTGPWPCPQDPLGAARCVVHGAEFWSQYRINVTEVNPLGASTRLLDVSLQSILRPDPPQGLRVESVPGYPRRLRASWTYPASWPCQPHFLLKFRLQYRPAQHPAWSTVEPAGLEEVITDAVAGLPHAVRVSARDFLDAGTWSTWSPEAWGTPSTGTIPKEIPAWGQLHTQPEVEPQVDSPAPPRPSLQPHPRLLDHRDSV


Key:
[1] = biological target: T1, human IL-11Rα on transfected cells; assay: cell-based or functional assay
[2] = biological target: T2, human IL-11Rα (form used in the assay …); assay: Biacore, pH 8.5, 37°C

Row | Binder | Fold increase in potency relative to 8E2 [1] | IC50 [1] | Kd [2]
1 | hu8E2-TS-129 (antibody, V domains shown) VH: EVQLLESGGGLVQPGGSLRLSCAASGFTFSWYSMTWVRQAPGKGLEWVSSIVPSGGHTQYADSVKGRFTISRDNSKNTLYLQMNSLRAEDTAVYYCAKPEDWGMFDLWGRGTLVTVSS VL: not shown | 4.7 fold | 0.2 µg/mL | 0.63 nM
2 | hu8E2-TS-156 (antibody, V domains shown) VH: EVQLLESGGGLVQPGGSLRLSCAASGFTFSWYSMTWVRQAPGKGLEWVSSIVPSGGHTQYADSVKGRFTISRDNSKNTLYLQMNSLRAEDTAVYYCAKPEDWGRFDLWGRGTLVTVSS VL: not shown | 4.9 fold | 0.13 µg/mL | 0.631 nM
3 | hu8E2-TS-134 (antibody, V domains shown) VH: EVQLLESGGGLVQPGGSLRLSCAASGFTFSWYSMTWVRQAPGKGLEWVSSIVPSGGHTQYADSVKGRFTISRDNSKNTLYLQMNSLRAEDTAVYYCAKPEDWGLFDLWGRGTLVTVSS VL: not shown | 4.3 fold | 0.22 µg/mL | 0.52 nM
4 | hu8E2-TS-214 (antibody, V domains shown) VH: EVQLLESGGGLVQPGGSLRLSCAASGFTFSWYSMTWVRQAPGKGLEWVSSIVPSGGHTQYADSVKGRFTISRDNSKNTLYLQMNSLRAEDTAVYYCAKGPGWGSFWFWGRGTLVTVSS VL: not shown | 1.6 fold | 0.31 µg/mL | 1.11 nM
5 | hu8E2-TS-143 (antibody, V domains shown) VH: EVQLLESGGGLVQPGGSLRLSCAASGFTFSWYSMTWVRQAPGKGLEWVSSIVPSGGHTQYADSVKGRFTISRDNSKNTLYLQMNSLRAEDTAVYYCAKPHDWGLFDLWGRGTLVTVSS VL: not shown | 1.6 fold | 0.39 µg/mL | 0.416 nM
6 | hu8E2-TS-151 (antibody, V domains shown) VH: EVQLLESGGGLVQPGGSLRLSCAASGFTFSWYSMTWVRQAPGKGLEWVSSIVPSGGHTQYADSVKGRFTISRDNSKNTLYLQMNSLRAEDTAVYYCAKPHDWGRFDLWGRGTLVTVSS VL: not shown | 2.4 fold | 0.26 µg/mL | 0.242 nM
7 | hu8E2-TS-133 (antibody, V domains shown) VH: EVQLLESGGGLVQPGGSLRLSCAASGFTFSWYSMTWVRQAPGKGLEWVSSIVPSGGHTQYADSVKGRFTISRDNSKNTLYLQMNSLRAEDTAVYYCAKPVDWGRFDLWGRGTLVTVSS VL: not shown | 4.1 fold | 0.23 µg/mL | 0.513 nM
8 | hu8E2-TS-140 (antibody, V domains shown) VH: EVQLLESGGGLVQPGGSLRLSCAASGFTFSWYSMTWVRQAPGKGLEWVSSIVPSGGHTQYADSVKGRFTISRDNSKNTLYLQMNSLRAEDTAVYYCAKPNDWGLFDLWGRGTLVTVSS VL: not shown | 1.5 fold | 0.42 µg/mL | 0.471 nM
9 | hu8E2-TS-135 (antibody, V domains shown) VH: EVQLLESGGGLVQPGGSLRLSCAASGFTFSWYSMTWVRQAPGKGLEWVSSIVPSGGHTQYADSVKGRFTISRDNSKNTLYLQMNSLRAEDTAVYYCAKPLDWGLFDLWGRGTLVTVSS VL: not shown | 4.8 fold | 0.2 µg/mL | 0.525 nM
10 | hu8E2-TS-136 (antibody, V domains shown) VH: EVQLLESGGGLVQPGGSLRLSCAASGFTFSWYSMTWVRQAPGKGLEWVSSIVPSGGHTQYADSVKGRFTISRDNSKNTLYLQMNSLRAEDTAVYYCAKPLDWGRFDLWGRGTLVTVSS VL: not shown | 6 fold | 0.16 µg/mL | 0.232 nM

Other lines, results leading:

Row | Fold increase in potency relative to 8E2 [1] | IC50 [1] | Kd [2] | Binder
11 | 2.6 fold | 0.2 µg/mL | 0.634 nM | hu8E2-TS-221 (antibody, V domains shown) VH: EVQLLESGGGLVQPGGSLRLSCAASGFTFSWYSMTWVRQAPGKGLEWVSSIVPSGGHTQYADSVKGRFTISRDNSKNTLYLQMNSLRAEDTAVYYCAKGPGWGSFWYWGRGTLVTVSS VL: not shown
12 | 0.4 fold | 0.84 µg/mL | 2.09 nM | hu8E2-TS-310 (antibody, V domains shown) VH: EVQLLESGGGLVQPGGSLRLSCAASGFTFSWYSMTWVRQAPGKGLEWVSSIVPSGGHTQYADSVKGRFTISRDNSKNTLYLQMNSLRAEDTAVYYCAKGPGWGSFDLWGRGTLVTVSS VL: DIQMTQSPSSLSASVGDRVTITCQASQDVAMYIEWYQQKPGKAPKLLIYDASNLQTGVPSRFSGSGSGTDFTFTISSLQPEDIATYYCQQYDNLSPTFGPGTKVDIK
13 | 2.7 fold | 0.19 µg/mL | 1.39 nM | hu8E2-TS-218 (antibody, V domains shown) VH: EVQLLESGGGLVQPGGSLRLSCAASGFTFSWYSMTWVRQAPGKGLEWVSSIVPSGGHTQYADSVKGRFTISRDNSKNTLYLQMNSLRAEDTAVYYCAKGPGWGSFWEWGRGTLVTVSS VL: not shown
14 | 0.6 fold | 0.6 µg/mL | 1.69 nM | hu8E2-TS-311 (antibody, V domains shown) VH: EVQLLESGGGLVQPGGSLRLSCAASGFTFSWYSMTWVRQAPGKGLEWVSSIVPSGGHTQYADSVKGRFTISRDNSKNTLYLQMNSLRAEDTAVYYCAKGPGWGSFDLWGRGTLVTVSS VL: DIQMTQSPSSLSASVGDRVTITCQASQDVSQYIEWYQQKPGKAPKLLIYDASNLQTGVPSRFSGSGSGTDFTFTISSLQPEDIATYYCQQYDNLSPTFGPGTKVDIK
15 | 2.1 fold | 0.23 µg/mL | 1.58 nM | hu8E2-TS-305 (antibody, V domains shown) VH: EVQLLESGGGLVQPGGSLRLSCAASGFTFSWYSMTWVRQAPGKGLEWVSSIVPSGGHTQYADSVKGRFTISRDNSKNTLYLQMNSLRAEDTAVYYCAKGPGWGSFDLWGRGTLVTVSS VL: DIQMTQSPSSLSASVGDRVTITCQASQDVGIYVEWYQQKPGKAPKLLIYDASNLQTGVPSRFSGSGSGTDFTFTISSLQPEDIATYYCQQYDNLSPTFGPGTKVDIK
16 | 1.4 fold | 0.35 µg/mL | 4.09 nM | hu8E2-TS-303 (antibody, V domains shown) VH: EVQLLESGGGLVQPGGSLRLSCAASGFTFSWYSMTWVRQAPGKGLEWVSSIVPSGGHTQYADSVKGRFTISRDNSKNTLYLQMNSLRAEDTAVYYCAKGPGWGSFDLWGRGTLVTVSS VL: DIQMTQSPSSLSASVGDRVTITCQASQDVDYWVEWYQQKPGKAPKLLIYDASNLQTGVPSRFSGSGSGTDFTFTISSLQPEDIATYYCQQYDNLSPTFGPGTKVDIK
17 | 3.3 fold | 0.15 µg/mL | 1.07 nM | hu8E2-TS-306 (antibody, V domains shown) VH: EVQLLESGGGLVQPGGSLRLSCAASGFTFSWYSMTWVRQAPGKGLEWVSSIVPSGGHTQYADSVKGRFTISRDNSKNTLYLQMNSLRAEDTAVYYCAKGPGWGSFDLWGRGTLVTVSS VL: DIQMTQSPSSLSASVGDRVTITCQASQDVDKYVEWYQQKPGKAPKLLIYDASNLQTGVPSRFSGSGSGTDFTFTISSLQPEDIATYYCQQYDNLSPTFGPGTKVDIK
18 | 1.5 fold | 0.34 µg/mL | 1.85 nM | hu8E2-TS-215 (antibody, V domains shown) VH: EVQLLESGGGLVQPGGSLRLSCAASGFTFSWYSMTWVRQAPGKGLEWVSSIVPSGGHTQYADSVKGRFTISRDNSKNTLYLQMNSLRAEDTAVYYCAKGPGWGSFWQWGRGTLVTVSS VL: not shown
19 | 1.2 fold | 0.39 µg/mL | 1.91 nM | hu8E2-TS-224 (antibody, V domains shown) VH: EVQLLESGGGLVQPGGSLRLSCAASGFTFSWYSMTWVRQAPGKGLEWVSSIVPSGGHTQYADSVKGRFTISRDNSKNTLYLQMNSLRAEDTAVYYCAKGPGWGSFWTWGRGTLVTVSS VL: not shown
20 | 3.3 fold | 0.16 µg/mL | 1.91 nM | hu8E2-TS-222 (antibody, V domains shown) VH: EVQLLESGGGLVQPGGSLRLSCAASGFTFSWYSMTWVRQAPGKGLEWVSSIVPSGGHTQYADSVKGRFTISRDNSKNTLYLQMNSLRAEDTAVYYCAKGPGWGTFAYWGRGTLVTVSS VL: not shown
21 | 1.2 fold | 0.29 µg/mL | 1.76 nM | hu8E2-TS-312 (antibody, V domains shown) VH: EVQLLESGGGLVQPGGSLRLSCAASGFTFSWYSMTWVRQAPGKGLEWVSSIVPSGGHTQYADSVKGRFTISRDNSKNTLYLQMNSLRAEDTAVYYCAKGPGWGSFDLWGRGTLVTVSS VL: DIQMTQSPSSLSASVGDRVTITCQASQDIGQYVEWYQQKPGKAPKLLIYDASNLQTGVPSRFSGSGSGTDFTFTISSLQPEDIATYYCQQYDNLSPTFGPGTKVDIK
22 | 1.9 fold | 0.25 µg/mL | 1.32 nM | hu8E2-TS-307 (antibody, V domains shown) VH: EVQLLESGGGLVQPGGSLRLSCAASGFTFSWYSMTWVRQAPGKGLEWVSSIVPSGGHTQYADSVKGRFTISRDNSKNTLYLQMNSLRAEDTAVYYCAKGPGWGSFDLWGRGTLVTVSS VL: DIQMTQSPSSLSASVGDRVTITCQASQDVSMYVEWYQQKPGKAPKLLIYDASNLQTGVPSRFSGSGSGTDFTFTISSLQPEDIATYYCQQYDNLSPTFGPGTKVDIK

Reference: patent US20160031999A1 (CSL, published 2016)
